Experimental data as given in PMC4966845 (mAbs, 2016).
Like-named read-outs stand apart in the source and are kept apart here.

Key:
[1] = target: T1, human IGF-1R extracellular domain (Homo sapiens, UniProt P08069); test: SPR
[2] = target: T2, IGF-1R on tumor cells (A549, TC-71) (Homo sapiens (A549, TC-71 cells), UniProt P08069); test: flow cytometry on cells
[3] = target: T2, IGF-1R on tumor cells (A549, TC-71); test: flow cytometry on cells; remark: listed apart in the source
[4] = target: T1, human IGF-1R extracellular domain; test: SPR; remark: listed apart in the source

T1 sequence (P08069 741-935): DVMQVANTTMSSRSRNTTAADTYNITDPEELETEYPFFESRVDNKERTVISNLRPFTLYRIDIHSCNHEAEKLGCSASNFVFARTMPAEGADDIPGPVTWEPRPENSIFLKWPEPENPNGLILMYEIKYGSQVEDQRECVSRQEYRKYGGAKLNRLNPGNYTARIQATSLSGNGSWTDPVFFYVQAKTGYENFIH
T2 sequence (P08069 31-1367): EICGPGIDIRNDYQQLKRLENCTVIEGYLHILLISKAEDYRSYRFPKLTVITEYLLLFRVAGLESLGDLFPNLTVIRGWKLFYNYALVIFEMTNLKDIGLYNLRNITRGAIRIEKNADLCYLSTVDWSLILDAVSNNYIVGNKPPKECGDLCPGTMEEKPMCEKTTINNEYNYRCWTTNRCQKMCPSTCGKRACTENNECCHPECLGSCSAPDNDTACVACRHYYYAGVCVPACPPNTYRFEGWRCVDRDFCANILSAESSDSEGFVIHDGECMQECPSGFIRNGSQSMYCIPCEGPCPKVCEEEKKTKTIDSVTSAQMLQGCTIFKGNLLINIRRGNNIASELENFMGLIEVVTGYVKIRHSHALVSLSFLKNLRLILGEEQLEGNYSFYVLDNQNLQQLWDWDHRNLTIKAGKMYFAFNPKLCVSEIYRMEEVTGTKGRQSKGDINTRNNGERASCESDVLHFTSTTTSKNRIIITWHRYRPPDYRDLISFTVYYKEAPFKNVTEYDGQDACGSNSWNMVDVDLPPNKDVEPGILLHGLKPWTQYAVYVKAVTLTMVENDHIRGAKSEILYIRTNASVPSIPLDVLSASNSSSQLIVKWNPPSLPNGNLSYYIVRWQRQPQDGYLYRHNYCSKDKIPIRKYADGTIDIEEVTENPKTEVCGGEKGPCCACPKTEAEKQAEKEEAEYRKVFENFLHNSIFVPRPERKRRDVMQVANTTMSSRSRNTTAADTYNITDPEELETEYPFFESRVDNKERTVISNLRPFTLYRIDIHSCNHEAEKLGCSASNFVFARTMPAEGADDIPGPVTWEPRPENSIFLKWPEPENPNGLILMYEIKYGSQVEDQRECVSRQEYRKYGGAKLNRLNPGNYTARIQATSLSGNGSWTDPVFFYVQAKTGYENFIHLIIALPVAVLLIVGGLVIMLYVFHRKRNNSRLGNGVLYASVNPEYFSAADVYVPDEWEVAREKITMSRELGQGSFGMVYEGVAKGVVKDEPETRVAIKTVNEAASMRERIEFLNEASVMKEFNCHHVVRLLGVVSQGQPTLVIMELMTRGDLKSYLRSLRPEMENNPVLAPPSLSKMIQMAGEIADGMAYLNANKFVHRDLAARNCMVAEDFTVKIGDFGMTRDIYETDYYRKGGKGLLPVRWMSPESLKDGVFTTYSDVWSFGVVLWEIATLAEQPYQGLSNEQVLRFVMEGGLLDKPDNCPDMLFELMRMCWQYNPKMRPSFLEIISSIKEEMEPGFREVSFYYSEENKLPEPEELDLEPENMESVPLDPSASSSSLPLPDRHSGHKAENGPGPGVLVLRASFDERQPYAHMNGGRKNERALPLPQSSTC

| Kd [1] | koff [1] | kon [1] | fold reduction of binding against bivalent R1507 [2] | fold reduction of binding against bivalent R1507 [3] | IC50 [2] | Kd [4] | Binder |
| --- | --- | --- | --- | --- | --- | --- | --- |
| 1.47 nM | 0.00025 s⁻¹ | 170000 M⁻¹ s⁻¹ |  |  |  |  | F13B5 Fab fragment (Fab, V domains shown) VH: QVELVESGGGVVQPGRSQRLSCAASGFTFSSYGMHWVRQAPGKGLEWVAIIWFDGSSTYYADSVRGRFTISRDNSKNTLYLQMNSLRAEDTAVYFCARELGRRYFDLWGRGTLVSVSS VL: EIVLTQSPATLSLSPGERATLSCRASQSVSSYLAWYQQKPGQAPRLLIYQASKRATGIPARFSGSGSGTDFTLTISSLEPEDFAVYYCQQRSKYPPWTFGQGTKVESK |
| 18 nM | 0.00271 s⁻¹ | 153000 M⁻¹ s⁻¹ | ~34 fold | ~10 fold |  |  | R1507 Fab fragment (Fab, V domains shown) VH: QVELVESGGGVVQPGRSQRLSCAASGFTFSSYGMHWVRQAPGKGLEWVAIIWFDGSSTYYADSVRGRFTISRDNSKNTLYLQMNSLRAEDTAVYFCARELGRRYFDLWGRGTLVSVSS VL: EIVLTQSPATLSLSPGERATLSCRASQSVSSYLAWYQQKPGQAPRLLIYDASKRATGIPARFSGSGSGTDFTLTISSLEPEDFAVYYCQQRSKWPPWTFGQGTKVESK |
|  |  |  |  |  | ~1 nM | 5 nM | R1507, bivalent monospecific anti-IGF-1R antibody (antibody, V domains shown) VH: QVELVESGGGVVQPGRSQRLSCAASGFTFSSYGMHWVRQAPGKGLEWVAIIWFDGSSTYYADSVRGRFTISRDNSKNTLYLQMNSLRAEDTAVYFCARELGRRYFDLWGRGTLVSVSS VL: EIVLTQSPATLSLSPGERATLSCRASQSVSSYLAWYQQKPGQAPRLLIYDASKRATGIPARFSGSGSGTDFTLTISSLEPEDFAVYYCQQRSKWPPWTFGQGTKVESK |
